Measured values: publication PMC9530649 (Cancer Immunology Research, 2022)

T1: LAG-3 D1 insertion-loop peptide P60[…]75 (Homo sapiens)
T1 chain: PGPHPAAPSSWGPRPR

B1: recombinant human LAG-3–Fc protein (hLAG-3–hFc) (Fc fusion)
chain: LQPGAEVPVVWAQEGAPAQLPCSPTIPLQDLSLLRRAGVTWQHQPDSGPPAAAPGHPLAPGPHPAAPSSWGPRPRRYTVLSVGPGGLRSGRLPLQPRVQLDERGRQRGDFSLWLRPARRADAGEYRAAVHLRDRALSCRLRLRLGQASMTASPPGSLRASDWVILNCSFSRPDRPASVHWFRNRGQGRVPVRESPHHHLAESFLFLPQVSPMDSGPWGCILTYRDGFNVSIMYNLTVLGLEPPTPLTVYAGAGSRVGLPCRLPAGVGTRSFLTAKWTPPGGGPDLLVTGDNGDFTLRLEDVSQAQAGTYTCHIHLQEQQLNATVTLAIITVTPKSFGSPGSLGKLLCEVTPVSGQERFVWSSLDTPSQRSFSGPWLEAQEAQLLSQPWQCQLYQGERLLGAAVYFTELSSPGAQRSGRAPGALPAGHL
B2: LAG3.1-G4P (antibody, V domains shown)
VH: QVQLQQWGAGLLKPSETLSLTCAVYGGSFSDYYWNWIRQPPGKGLEWIGEINHNGNTNSNPSLKSRVTLSLDTSKNQFSLKLRSVTAADTAVYYCAFGYSDYEYNWFDPWGQGTLVTVSS
VL: EIVLTQSPATLSLSPGERATLSCRASQSISSYLAWYQQKPGQAPRLLIYDASNRATGIPARFSGSGSGTDFTLTISSLEPEDFAVYYCQQRSNWPLTFGQGTNLEIK
B3: LAG-3.1-G4P-FITC (fluoresceinated LAG3.1-G4P, parent antibody of relatlimab) (antibody, V domains shown)
VH: B2 VH
VL: B2 VL
B4: recombinant human fibrinogen-like protein-1 (FGL1)–mFc fusion protein (Fc fusion)
chain: LEDCAQEQMRLRAQVRLLETRVKQQQVKIKQLLQENEVQFLDKGDENTVIDLGSKRQYADCSEIFNDGYKLSGFYKIKPLQSPAEFSVYCDMSDGGGWTVIQRRSDGSENFNRGWKDYENGFGNFVQKHGEYWLGNKNLHFLTTQEDYTLKIDLADFEKNSRYAQYKNFKVGDEKNFYELNIGEYSGTAGDSLAGNFHPEVQWWASHQRMKFSTWDRDHDNYEGNCAEEDQSGWWFNRCHSANLNGVYYSGPYTAKTDNGIVWYTWHGWWYSLKSVVMKIRPNDFIPNVI

Legend:
[1] = target: recombinant human LAG-3–Fc protein (hLAG-3–hFc) (human) (UniProt P18627); assay: SPR
[2] = target: recombinant human LAG-3–Fc protein (hLAG-3–hFc) (human) (UniProt P18627); assay: ELISA
[3] = target: cynomolgus monkey LAG-3 (cynomolgus monkey (endogenous in primary CD4+ T cells)); assay: flow cytometry on cells
[4] = target: hLAG-3–mFc (Homo sapiens) (UniProt P18627); assay: flow cytometry on cells
[5] = target: full-length human LAG-3 on CHO-S cells (CHO-huLAG-3) (Homo sapiens) (UniProt P18627); assay: flow cytometry on cells
[6] = target: B4; assay: ELISA
[7] = target: T1, LAG-3 D1 insertion-loop peptide P60[…]75; assay: ELISA
native human LAG-3 = native human LAG-3 (Homo sapiens, endogenous, UniProt P18627); assay: immunostaining of cells or tissue
[8] = target: LAG-3 endogenous in normal human pituitary (adenohypophysis) (Homo sapiens, endogenous, UniProt P18627); assay: immunostaining of cells or tissue
[9] = target: human LAG-3 fusion protein (used for pre-absorption of LAG-3.1-G4P-FITC) (Homo sapiens, UniProt P18627); assay: immunostaining of cells or tissue
[10] = target: B1; assay: BLI

## relatlimab (antibody)
[1]
  Kd: 0.12 nM
[2]
  EC50: 0.49 nM
  IC50: 0.019 nM
[3]
  EC50: 29.1 nM
[4]
  IC50: 0.67 nM
[5]
  EC50: 1.46 nM

## relatlimab Fab fragment (Fab 3.5)
[1]
  Kd: 10 nM

## B1
[6]
  EC50: 0.085 nM

## B2
[7]
  EC50: 0.44 nM
Native human LAG-3
  binding result: binds

## B3
[8]
  binding result: binds
[9]
  binding result: binds

## B4
[10]
  Kd: > 1000 nM
